Test system: GFP-tagged PRPF40A-Nter-MUT
Test: SILAC GFP-immunoprecipitation with quantitative mass spectrometry, mutant construct
Assay type: binding, human (Hela cells)
Settings: quantitative MS, Hela cells, protein by gene name
Description: The PRPF40A N-terminal region (isoform 2, residues 1-221) was PCR-amplified from RPE1 cDNA (ATCC, Cat# CRL-4000) cDNA. The sequence was amplified in two fragments and both fragments were combined by overhang. All PCRs were carried out using Q5 Polymerase (NEB) according to manufacturer’s protocol. The resulting PRPF40A N-terminal region was cloned into a GFP-expressing pcDNA5 vector (see pcDNA5 GFP vector in ref. [28]) using Q5 Site-Directed Mutagenesis Kit (NEB). Nter-MUT, containing the PPVP/PALPP motifs changed to AAAA/AAAAA, was obtained by mutating the N-ter-WW12-containing plasmid with Q5 site-directed mutagenesis. Plasmids were transformed into DH5alpha chemically competent cells. After culturing, DNA isolation was performed with either ZymoPURE Plasmid Miniprep Kit (Zymo Research) or QIAGEN Plasmid Plus Midi Kit (Qiagen). The sequence was confirmed by Sanger Sequencing (GATC Eurofins). All used oligonucleotides are shown in Supplementary Table 6.
Hela cells (ATCC, Cat# CCL-2, RRID:CVCL_0030) were cultured in DMEM SILAC medium (Thermo Fisher) supplemented with 10% filtered FBS (Sigma-Aldrich) and 1% penicillin-streptomycin (Thermo-Fisher). The SILAC medium contains either light (Arg0, Lys0), medium (Arg6, Lys4) or heavy (Arg10, Lys8) isotopes (Cambridge Isotopes Laboratories). Hela cells were cultivated for 14 days in SILAC medium to assure sufficient isotope incorporation. For transfection, 7 × 10^6 Hela cells were seeded in a 15 cm culture dish in 20 ml of respective SILAC medium and grown for 24 h. The cells were then transfected with 20 µg of plasmids expressing either GFP (Control), GFP-tagged N-ext-WW12 or GFP-tagged-N-ext-WW12-MUT utilizing 64 µl FuGENE (Promega) (ratio 1:3.2), according to manufacturer’s protocol.
24 h post-transfection, cells were washed twice in ice-cold PBS and harvested in 1 ml mRIPA buffer (50 mM Tris, 150 mM NaCl, 1 mM EDTA, 1% NP-40, 0.1% Na-deoxycholate), supplemented with 2 µl Turbo-DNase (Thermo Fisher) and 3 µl protease-inhibitor cocktail cOmplete (Sigma-Aldrich). Cell lysates were cleared by centrifugation at 16,000 × g, 4 °C, 15 min and concentration was measured using Pierce BCA Protein Assay kit (Thermo Scientific). The expressed constructs were pulled down by incubating 2.5 mg of lysate with 20 μl GFP-nanobody agarose beads (ChromoTek, GTA-20) for 1 h at 4 °C under constant agitation. Subsequently, beads were washed three times with mRIPA buffer without supplements, then eluted in 1X NuPAGE LDS sample buffer (Thermo Scientific). To detach the proteins from the beads, the eluate was heated to 70 °C for 10 min To evaluate the success of the immunoprecipitation, input (1%) and IP samples were analyzed on a NuPAGE 4–12% Bis-Tris-Acrylamide gel (Thermo Fisher) using NuPAGE MOPS SDS running buffer (Thermo Fisher). Proteins were stained using Sypro Ruby protein gel stain (Thermo Fisher) according to manufacturer’s protocol.
The eluted proteins of three SILAC states (light, medium, heavy) were combined. The proteins were then reduced in DTT, alkylated in iodoacetamide, and purified using the SP3 paramagnetic bead approach. This was followed by overnight enzymatic digestion using trypsin (1 µg per sample) in 50 mM ammonium bicarbonate at 37 °C. The peptide solution was then purified by solid phase extraction in C18 StageTips[99].
Peptides were separated by online reverse phase liquid chromatography using the EASY-nLC 1000 system (Thermo Scientific) in a 30-cm analytical column (inner diameter: 75 μm; heated at 50 °C) packed in-house with ReproSil-Pur 120 C18-AQ 1.9-μm beads (Dr. Maisch GmbH). The gradient separation was performed through a 105-min non-linear gradient of 1.6–32% acetonitrile with 0.1% formic acid at a nanoflow rate of 225 nl/min. The eluted peptides were sprayed directly by electrospray ionization into a Q Exactive Plus Orbitrap mass spectrometer (Thermo Scientific). […]

B1: SF3A1 (protein, UniProt Q15459 2-793, looked up)
Splicing factor 3A subunit 1: PAGPVQAVPPPPPVPTEPKQPTEEEASSKEDSAPSKPVVGIIYPPPEVRNIVDKTASFVARNGPEFEARIRQNEINNPKFNFLNPNDPYHAYYRHKVSEFKEGKAQEPSAAIPKVMQQQQQTTQQQLPQKVQAQVIQETIVPKEPPPEFEFIADPPSISAFDLDVVKLTAQFVARNGRQFLTQLMQKEQRNYQFDFLRPQHSLFNYFTKLVEQYTKILIPPKGLFSKLKKEAENPREVLDQVCYRVEWAKFQERERKKEEEEKEKERVAYAQIDWHDFVVVETVDFQPNEQGNFPPPTTPEELGARILIQERYEKFGESEEVEMEVESDEEDDKQEKAEEPPSQLDQDTQVQDMDEGSDDEEEGQKVPPPPETPMPPPLPPTPDQVIVRKDYDPKASKPLPPAPAPDEYLVSPITGEKIPASKMQEHMRIGLLDPRWLEQRDRSIREKQSDDEVYAPGLDIESSLKQLAERRTDIFGVEETAIGKKIGEEEIQKPEEKVTWDGHSGSMARTQQAAQANITLQEQIEAIHKAKGLVPEDDTKEKIGPSKPNEIPQQPPPPSSATNIPSSAPPITSVPRPPTMPPPVRTTVVSAVPVMPRPPMASVVRLPPGSVIAPMPPIIHAPRINVVPMPPSAPPIMAPRPPPMIVPTAFVPAPPVAPVPAPAPMPPVHPPPPMEDEPTSKKLKTEDSLMPEEEFLRRNKGPVSIKVQVPNMQDKTEWKLNGQVLVFTLPLTDQVSVIKVKIHEATGMPAGKQKLQYEGIFIKDSNSLAYYNMANGAVIHLALKERGGRKK
- Immunoprecipitation enrichment MUT vs WT, log2 FC: 1.381

B2: MTREX (protein, UniProt P42285 2-1042, looked up)
Exosome RNA helicase MTR4: ADAFGDELFSVFEGDSTTAAGTKKDKEKDKGKWKGPPGSADKAGKRFDGKLQSESTNNGKNKRDVDFEGTDEPIFGKKPRIEESITEDLSLADLMPRVKVQSVETVEGCTHEVALPAEEDYLPLKPRVGKAAKEYPFILDAFQREAIQCVDNNQSVLVSAHTSAGKTVCAEYAIALALREKQRVIFTSPIKALSNQKYREMYEEFQDVGLMTGDVTINPTASCLVMTTEILRSMLYRGSEVMREVAWVIFDEIHYMRDSERGVVWEETIILLPDNVHYVFLSATIPNARQFAEWICHLHKQPCHVIYTDYRPTPLQHYIFPAGGDGLHLVVDENGDFREDNFNTAMQVLRDAGDLAKGDQKGRKGGTKGPSNVFKIVKMIMERNFQPVIIFSFSKKDCEAYALQMTKLDFNTDEEKKMVEEVFSNAIDCLSDEDKKLPQVEHVLPLLKRGIGIHHGGLLPILKETIEILFSEGLIKALFATETFAMGINMPARTVLFTNARKFDGKDFRWISSGEYIQMSGRAGRRGMDDRGIVILMVDEKMSPTIGKQLLKGSADPLNSAFHLTYNMVLNLLRVEEINPEYMLEKSFYQFQHYRAIPGVVEKVKNSEEQYNKIVIPNEESVVIYYKIRQQLAKLGKEIEEYIHKPKYCLPFLQPGRLVKVKNEGDDFGWGVVVNFSKKSNVKPNSGELDPLYVVEVLLRCSKESLKNSATEAAKPAKPDEKGEMQVVPVLVHLLSAISSVRLYIPKDLRPVDNRQSVLKSIQEVQKRFPDGIPLLDPIDDMGIQDQGLKKVIQKVEAFEHRMYSHPLHNDPNLETVYTLCEKKAQIAIDIKSAKRELKKARTVLQMDELKCRKRVLRRLGFATSSDVIEMKGRVACEISSADELLLTEMMFNGLFNDLSAEQATALLSCFVFQENSSEMPKLTEQLAGPLRQMQECAKRIAKVSAEAKLEIDEETYLSSFKPHLMDVVYTWATGATFAHICKMTDVFEGSIIRCMRRLEELLRQMCQAAKAIGNTELENKFAEGITKIKRDIVFAASLYL
- Immunoprecipitation enrichment MUT vs WT, log2 FC: 1.198

B3: SF3A3 (protein, UniProt Q12874 1-501, looked up)
Splicing factor 3A subunit 3: METILEQQRRYHEEKERLMDVMAKEMLTKKSTLRDQINSDHRTRAMQDRYMEVSGNLRDLYDDKDGLRKEELNAISGPNEFAEFYNRLKQIKEFHRKHPNEICVPMSVEFEELLKARENPSEEAQNLVEFTDEEGYGRYLDLHDCYLKYINLKASEKLDYITYLSIFDQLFDIPKERKNAEYKRYLEMLLEYLQDYTDRVKPLQDQNELFGKIQAEFEKKWENGTFPGWPKETSSALTHAGAHLDLSAFSSWEELASLGLDRLKSALLALGLKCGGTLEERAQRLFSTKGKSLESLDTSLFAKNPKSKGTKRDTERNKDIAFLEAQIYEYVEILGEQRHLTHENVQRKQARTGEEREEEEEEQISESESEDEENEIIYNPKNLPLGWDGKPIPYWLYKLHGLNINYNCEICGNYTYRGPKAFQRHFAEWRHAHGMRCLGIPNTAHFANVTQIEDAVSLWAKLKLQKASERWQPDTEEEYEDSSGNVVNKKTYEDLKRQGLL
- Immunoprecipitation enrichment MUT vs WT, log2 FC: 1.179

B4: DIAPH2 (protein, UniProt O60879 1-1101, looked up)
Protein diaphanous homolog 2: MEQPGAAASGAGGGSEEPGGGRSNKRSAGNRAANEEETKNKPKLNIQIKTLADDVRDRITSFRKSTVKKEKPLIQHPIDSQVAMSEFPAAQPLYDERSLNLSEKEVLDLFEKMMEDMNLNEEKKAPLRNKDFTTKREMVVQYISATAKSGGLKNSKHECTLSSQEYVHELRSGISDEKLLNCLESLRVSLTSNPVSWVNNFGHEGLGLLLDELEKLLDKKQQENIDKKNQYKLIQCLKAFMNNKFGLQRILGDERSLLLLARAIDPKQPNMMTEIVKILSAICIVGEENILDKLLGAITTAAERNNRERFSPIVEGLENQEALQLQVACMQFINALVTSPYELDFRIHLRNEFLRSGLKTMLPDLKEKENDELDIQLKVFDENKEDDLTELSHRLNDIRAEMDDMNEVYHLLYNMLKDTAAENYFLSILQHFLLIRNDYYIRPQYYKIIEECVSQIVLHCSGMDPDFKYRQRLDIDLTHLIDSCVNKAKVEESEQKAAEFSKKFDEEFTARQEAQAELQKRDEKIKELEAEIQQLRTQAQVLSSSSGIPGPPAAPPLPGVGPPPPPPAPPLPGGAPLPPPPPPLPGMMGIPPPPPPPLLFGGPPPPPPLGGVPPPPGISLNLPYGMKQKKMYKPEVSMKRINWSKIEPTELSENCFWLRVKEDKFENPDLFAKLALNFATQIKVQKNAEALEEKKTGPTKKKVKELRILDPKTAQNLSIFLGSYRMPYEDIRNVILEVNEDMLSEALIQNLVKHLPEQKILNELAELKNEYDDLCEPEQFGVVMSSVKMLQPRLSSILFKLTFEEHINNIKPSIIAVTLACEELKKSESFNRLLELVLLVGNYMNSGSRNAQSLGFKINFLCKIRDTKSADQKTTLLHFIADICEEKYRDILKFPEELEHVESASKVSAQILKSNLASMEQQIVHLERDIKKFPQAENQHDKFVEKMTSFTKTAREQYEKLSTMHNNMMKLYENLGEYFIFDSKTVSIEEFFGDLNNFRTLFLEAVRENNKRREMEEKTRRAKLAKEKAEQEKLERQKKKKQLIDINKEGDETGVMDNLLEALQSGAAFRDRRKRIPRNPDNRRVPLERSRSRHNGAISSK
- Immunoprecipitation enrichment MUT vs WT, log2 FC: 1.317

B5: SF3A2 (protein, UniProt Q15428 1-464, looked up)
Splicing factor 3A subunit 2: MDFQHRPGGKTGSGGVASSSESNRDRRERLRQLALETIDINKDPYFMKNHLGSYECKLCLTLHNNEGSYLAHTQGKKHQTNLARRAAKEAKEAPAQPAPEKVKVEVKKFVKIGRPGYKVTKQRDSEMGQQSLLFQIDYPEIAEGIMPRHRFMSAYEQRIEPPDRRWQYLLMAAEPYETIAFKVPSREIDKAEGKFWTHWNRETKQFFLQFHFKMEKPPAPPSLPAGPPGVKRPPPPLMNGLPPRPPLPESLPPPPPGGLPLPPMPPTGPAPSGPPGPPQLPPPAPGVHPPAPVVHPPASGVHPPAPGVHPPAPGVHPPAPGVHPPTSGVHPPAPGVHPPAPGVHPPAPGVHPPAPGVHPPAPGVHPPPSAGVHPQAPGVHPAAPAVHPQAPGVHPPAPGMHPQAPGVHPQPPGVHPSAPGVHPQPPGVHPSNPGVHPPTPMPPMLRPPLPSEGPGNIPPPPPTN
- Immunoprecipitation enrichment MUT vs WT, log2 FC: 1.275

Reference: paper PMC11079029, “Intramolecular autoinhibition regulates the selectivity of PRPF40A tandem WW domains for proline-rich motifs” (Nature Communications, 2024)
